Data from the nanobody polyreactivity screen of Harvey et al. (2022).

Test: yeast display, Sf9 membrane polyspecificity reagent, FACS + sequencing; frameworks hold sequencing errors
Method in brief: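 In a synthetic yeast display library (Saccharomyces cerevisiae BJ5465), nanobody expression was induced with galactose for 36–48 hours. FACS gates were set low and high (top ~1%) using anti-HA fluorescence for expression and streptavidin fluorescence for binding of the Sf9 membrane reagent. Each polyreactivity label is drawn from the gate of origin.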

Sequence | polyreactivity (PSR sort gate)
QVQLVESGGGLVQAGGSLRLSSASSGSIIFLYTMGWYRQAPGKERELVAAIDSVGSTNYADSVKGRFTISRDNAKNTVYLHMNSLKPEDTAVYYCNAYFWVGLYEYDYWGQGTQVTVSS | low polyreactivity
QVQLVESGGGLVQAGCSLRFSSAASGRISNYPMGWYRQPPGKERELVAAITWSGGSTYADSVKGRFTISRDNAKNTVYLQMNSLKPEDTAVYYWAARGTRYWDYRYYAYNYWGQGTQVTVSS | high polyreactivity
QVQLVESGGGLVQSGGSLRLSCAASGSTLSVYVMGWYRQAPGKERELVARIRSGGNTYYADSVKGRFTISRDNAKNTVYLLMNSLKPEDTAVYYCNADPSTGWYKYDYWGQGTQVTVSS | high polyreactivity
QVQLVESGGGLVQAGGSLRLSCAASGLTLRNYAKGWYREAPGKDRELVAAITTGGGRTFYADSVKGRFTISRDKAKNTVYLETNSLNPEDTAVYYCAAERAILSSDKQSLWRFDYWGQGTQVTVSS | low polyreactivity
QVQLVESGGGIVQAGVSLRLSCAASGSTFVRYAMGWYRPAPGKERELVAAISGGGSTSYADSVKGRFTISRDNAKNTVYLQMNSLKPEDTAVYYCAAEKYRWENDAYQYYTFDYWGQGTQVTVSS | low polyreactivity
QVQLVESGGGLVQAGGSLRLSCAASGRIFGTYAMGWYRQAPGKERELVAVITRGGGTKYADSVKGRFTISRDNAKNTVYLQMNSLKPEDTAVYYCAARGRYYGYNYWGQGTQVTVSS | high polyreactivity
QVQLVESGGGLVQAGGSLRLSCADSGFIFGYYAKGWYRQAPGKERELVADISRGGNTNYADSVKGRFTISRDNAKNTVYLQMNSLKPEDTAVYYCARYRRGKMDYCGQGTQVTVSS | high polyreactivity
QEQLVESGGGLVQAGGTLRLSSAASVNTISPNAMGWYRQPPGKERELVAAIDSRDGIRYYADSVKGRFTISRDNAKNTVYLQMNSLKPEDTAVYYCAPDEWYGESNYWGQGTQVTVSS | low polyreactivity
QVKLVESGGVLVQAGGSLRLSCADSGRTFYPYAMGWYRQGPGKDRELVAAISRSGGSTYADSVKGRFTISRDNAKYTVYLQMNSLKPEDTAVYYCATRRKTYLSFNYDYWGQGTQVTVSS | low polyreactivity
QVQLVESGGGLVQAGGSLRLSCAASGRIFGFYVMGWYRQAPGKERELVAAISSRGGSTYYADSVKGRFTISRDNAKNTVYLQMNSLKPEDTAVYYCAASVYREYYDNDDYWGQGTQVTVSS | high polyreactivity
PVQLVESRGGLVQAGGSLRLSCAASGIIFQRYAMGWYRQAPGKERELVAAINFSGGSTYYADSVKGRFTISRDNAKNTVYLQMNSLKPEDTSVYYCARAGRYAAYSPFYYWGQGTQVTVSS | high polyreactivity
QVQLVESGGGVVQAGGSLRLSCAASGSIVYSYAMGWYRQAPGKERELVARIRWGGGRTYYADSVKGHFAISRDNAKNTVYLQMNSLKPEDTAVYYCAASYVYPASFHYYYWGQGTQVTVSS | high polyreactivity
QVQIVESCGALVQAGRSLSLSCAASGSTFWDNVMGSYRQAPGKERELVAASTSGGSTNYADSVKGRFTISRDNAMNTDYLQLNSLIPEDTAVYYCAAGWYLYVLPYRYYYWRQGTQVTVSS | low polyreactivity
QVQLVESGGGLVQAGGSLRLTCAASGSILYYNAMGWYRQAPGKEREFVAAISDSGSSTYYADSVKGRFTISRDNAKNTVYLQMNSLKPEDTAVYYCNAYQGDKYDSWGQGTQVTVSS | low polyreactivity
QVQLVESGGGLVQAGGSLRLSCAASGRTFYDYAMGWYRQAPGKERELVAAISRRAGSTYYADSVKGRFTISRDNAKNTVYLQMNSLKPEDTAVYYCAAAYYRRWWRGHHYAFDYWGQGTQVTVSS | high polyreactivity
QVQLVESGGGLVQAGGSLRLSCAASGSIFGYNAMGWYRQAPGKERELVAAINYNGGRTYYADSVKGRFTISRDNAKNTVYLQMNSLKPEDTAVYYCNKVYLRTSGRDYWGQGTQVTVSS | high polyreactivity
QDQLVESGGGLVQAGGSLRLSCAASGLIFLYAMGWYRQAPGKERELVAAISNGGSTYYADSVKGRFTISRDNAKNTVYLQMNSLKPEDTAVYYCAAKGVRRRYRPDMYYWGQGTQVTVSS | high polyreactivity
QVQLVESGGGLVQAGGSLRLSCAASGSIFSFYMGWYRQAPGKERELVAAISSRGGSTYYADSVKGRFTISRDNAKNTVYLQMISLKPEDTAVYYCAAAGGGKVSYRDYDYWGQGTQVTVSS | high polyreactivity
QVQLVESGGGLVQAGGSLRLSCAASGRIFRPNAMGWYRQAPGKEREFVAAITSSSGTTYYADSVKGRFTISRDNAKNTVYLQMNSLKPEDTAVYYCAAAQRSVRLKFGYWGQGTQVTVSS | high polyreactivity
QVQLVESGGGLVQAGGSLRLSCAASGIIFRWYTMGWYRQAPGKERELVAAISTSTGSTYYADSVKGRFTISRDNAKNTVYLQMNSLKPEDTAVYYCNARQFSGLGYWGQGTQVTVSS | high polyreactivity
QVQLVESGGGLVQVGGSLRLSCAASGLTFYANAMGWYRQAPGKEREVVAAIRKRGGSTYYADSVKGRFTISRDNAKNTVYFQMNSLKPEDTAVYYGATYGGPFSVGTGFHDVRYDYWGHGTQVTVSS | low polyreactivity

Sequence | polyreactivity (PSR sort gate)
QVQLVESGGGLVQAGGSLRLSCAASGSTFSRNAMGWYRPAPGKERELVAAISSSGGRTYYADSVKGRFTISRDNAKNTVYLQMNSLKPQDTAVYYCAADWWRVEMDYWGQGTQVTVSS | low polyreactivity
QVQLVESAGGLVQAGGILRLSCAASGGIFRGYAMGWYRQAPGKERELVATIRSSGRTNYADSVKGRFTISRDNAKNTVYLQMNSLKPEDTAVYYCNKRRWWQYDRWGDWVLGGDDYWGQGTQVTVSS | low polyreactivity
QVQLVESGGGLVQAGGSLRLSCAASGRIYSSYAMGRYRQAPGKERELVAAISYSGDRTYYADSVKGRFTISRDNAKNTVYLQMNSLKPEDTAVYYCAARRVTRTTVYRYQYYYWGQGTQVTVSS | high polyreactivity
QVQLVESGGGLVQAGGSLRLSCASSGSIFFANAIGWYRQAPGKERELVATISWRGGSTYYAYSVKGRFTISRDIAKNSVYLQKNSLKPEDTAVYYCAAGYYPYWGQGTQLTVSS | low polyreactivity
QVQLVESGGGLVQAGGSLRLSCAASGSTFRWYAMGWYRQAPGKERELVASITRGGGSTYYADSVKGRFTISRDNAKNTVYLQMNSLKPEDTAVYYCAKRSLWSYYEGYYYWGQGTQVTVSS | high polyreactivity
QLQLVESGGGLVQAGGSLRLSCAASGSIFVTYAMGWYSQAPGKEMELVAAINYSGGSTYYADSVTGRFTISRDNAKNTVYLQMNSLKPEATAVYYCAAAVAVFSFDYPHYYEYEYWGQGTQVTVSS | low polyreactivity
QVQLVESGGGLVQAGGSLLLSCAASGFTFQYYAMGWYRPEPGKERELVASISWSGGSTYYADSVKGRFTISRDNAKNTVYLQMHSLKPEDTAVYYCAATVTYFFSSARFSAYGYWGQGTQVTVSS | high polyreactivity
QVQLVESGGGLVQAGGRLRLSCAASGSTFGYYARGWYRQAPGKERELVAAISTSSGSKYFADSVKGRFTISRDNAKNTVYLQMNSLKPEDTAVYYCNARKASYRSIYYYWGQGTQVTVSS | high polyreactivity
QVQLVESGGGLVQAGGSLRLSCAASGSIIQGYVMGWYRQAPGKERELDAAISNSGSSTYYADSVKGRFTISRDNAKNTVYLQMNSLKPEDTAVYYCAVLRSYRGSKYGYWGQGTQVTVSS | high polyreactivity
QVQLVESGGGLVQAGGSLRLSCAASGSTFYSNAMGWYRQAPGKERELVASIRFSGVITTYADSVKGRFTISRDNAKNTVYLQMNSLKPEDTAVYYWAAGYLSTTAYDYWGQGTQVTVSS | low polyreactivity
QVQLVESGGGLVQAGGSLRLSCAASGFIFRYYAMGWYRQAPGKERELVAAITSDGSTYYADSVKGRFTISRDNAKNTVYLQMNSLKPEDTAVYYCARSVYRFYLKTRASDYWGQGTQETVSS | high polyreactivity
QVQLVESGGGLVQAGGSLRLSCAASGSTLYGYAMGWYRQAPGKERELVAAISSSGTRTYYADSVKGRFTISRDNAKNSVYLQMNSLKPEDTAVYYCNAYYYIPFEGRGYSKMDYWGQGTQVTVSS | high polyreactivity
QVQLVESGGGLVQAGGSLRLSCAASGRTLWANAMGWYRQAPGKERELVAAITYSGGSTHYADSVKGRFTISRDNAKNTVYLQMNSLKPEDTAVYYCNADYDSYYTYLYDYWGQGTQVTVSS | low polyreactivity
QVQLVESGGGFVQAGGSLRLSCAASGSIFRGYAMGWYRQAPGKERELVAAIRYSGARTYYADSVKGRFTISRDNAKNTVYLQMNSLKPEDTAVYYCNARYIRSYDYWGQGTQVTVSS | high polyreactivity
QVQLVESGGGLVQAGGSLRLSCAASGSTSIYYTMGWYRQAPGKERELVAAITRGGRTYYADSVKGRFTISRDNAKNTVYLQMNSLKPEDTAVYYCAATTYLVWGYNYWGQGTQVTVSS | low polyreactivity
QVQLVESGGGLVQAGGSLRLSCAASGRIFVYNVMGWSRQSPGKERELVAAISWGTGSTYADSVKGRFTISRDNAKNTVYLQMNSLKPEDTAVYYCAADWLSTKNDYWGQGTQVTVSS | low polyreactivity
QVQLVESGGGLVQAGGSLRLSCAASGSIFGNNVMGWYRQAPGKERELVAAITSGTSTYYADSVKGRFTISRDNAKNTVYLQMNSLKPEDTAVYYCAALWSSRYVVHPQWYDYWGQGTQVTVSS | low polyreactivity
QVQLVESGGGLVQAGGSLCLSCAASGIFVYNAIGWYRQAPGKEREFVAAINKSGASTFYADSVKGRFTISRDNAKNTVYLQMNRLKPEDTAVYYCRERDYWGQGTQVTVSS | low polyreactivity
QVQLVESGGGLVQAGGSLRLSCAASGLTSIHYMGWYRQAPGKERELVATITSSTGSTYYADSVKGRFTISRDNAKNTVYLQMNSLKPEDTAVYYCAAESFGADGPYQPSYDYWGQGTQVTVSS | low polyreactivity
QVQLVESGGGLVQAGGSLRLSCAASGFTFAYYAMGWYRQAPGKERELVAAITRGGGRTFYADSVKGRFTISRDNAKNTVYLQMNSLKPEDTAVYYCAREVYRHYAPVGYDYWGQGTQVTVSS | high polyreactivity
